Our source for the percent of DNAHX particles in a two-headed dynein complex (open conformation) and percent of DNAHX particles in phi particle dynein values is article PMC11785096.

This assay concerns the target another dynein heavy chain (unidentified second DHC of dynein-X) (Lytechinus variegatus (endogenous in sperm)). The assay can be described thus: cryo-EM structure.

Consider “DNAHX (dynein heavy chain, XP_041462850) (natural protein)”, for which the percent of DNAHX particles in a two-headed dynein complex (open conformation) worked out at 27% and the percent of DNAHX particles in phi particle dynein was 13%.
